Test results as given in patent US20240401063, “Aptamer for DKK1 and Use Thereof” (APTACURE THERAPEUTICS LIMITED, published 2024).

How the values were obtained:
[1] = molecular target: T1, DKK1 (Dickkopf-1), full-length (Homo sapiens, UniProt O94907 SEQ:32-266); assay: ELONA; 100 nM and 1 nM: no or slight difference from aptdkk5; conditions: tags: His6; label: biotin
T1 sequence: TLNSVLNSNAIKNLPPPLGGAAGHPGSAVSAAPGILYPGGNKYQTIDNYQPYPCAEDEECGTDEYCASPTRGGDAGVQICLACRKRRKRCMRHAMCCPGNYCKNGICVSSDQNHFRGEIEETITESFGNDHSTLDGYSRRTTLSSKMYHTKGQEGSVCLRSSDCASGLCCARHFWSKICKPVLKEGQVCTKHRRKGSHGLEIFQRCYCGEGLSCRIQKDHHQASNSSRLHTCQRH
Protocol: Enzyme linked oligonucleotide assay (ELONA): 160 ng DKK1 per well and negative target were coated in a 96-well microtiter plate by incubating at 4° C. overnight through hydrophobic interaction. Non-binding sites in wells were blocked with bull serum albumin (BSA) at room temperature for 1 hour, and then washed with DNA-binding buffer 4 times for 5 minutes each. The biotinylated aptamer candidates/RS with an appropriate concentration were added to each well and incubated at room temperature for 45 minutes with continuous gentle shaking. After binding, the plate was washed with washing buffer 4 times for 5 minutes each to remove non-specific and weakly binding sequences. […] The absorbance at 450 nm was measured with a microplate reader (Molecular Device i3x). Data was analyzed with Origin software. A binding curve was generated and KD was calculated with a non-linear curve fitting model logistic.
The specificity of 100 nM/i nM of each aptamer/RS against DKK-1 was determined for 24 truncated sequences of aptdkk5 and original aptdkk5 (Table 6) by ELONA and the absorbance at 450 nm was detected. When the concentration was 100 nM, there was no significant difference or slight difference in the absorbance between apt5-1-38, apt5-1-35, apt5-1-62, or apt5-1-59 and the original aptdkk5 (FIG. 8a). […]

[2] = molecular target: T1, DKK1 (Dickkopf-1), full-length; assay: ELONA; highest affinity of the four truncations; Kd only in FIG. 9; conditions: tags: His6; label: biotin
Protocol: Enzyme linked oligonucleotide assay (ELONA): 160 ng DKK1 per well and negative target were coated in a 96-well microtiter plate by incubating at 4° C. overnight through hydrophobic interaction. Non-binding sites in wells were blocked with bull serum albumin (BSA) at room temperature for 1 hour, and then washed with DNA-binding buffer 4 times for 5 minutes each. The biotinylated aptamer candidates/RS with an appropriate concentration were added to each well and incubated at room temperature for 45 minutes with continuous gentle shaking. After binding, the plate was washed with washing buffer 4 times for 5 minutes each to remove non-specific and weakly binding sequences. 100 μl streptavidin-horseradish peroxidase (HRP) (1:10000 dilute into PBST+0.1% BSA) was added to each well, and incubated for 30 minutes, and washed for 4 times with the binding buffer. 50 μl 3,3′,5,5′-tetramethylbenzidine (TMB) as a HRP substrate was added to each well and incubated for 20 minutes. 50 μl 2M H₂SO₄ was added to terminate the reaction. The absorbance at 450 nm was measured with a microplate reader (Molecular Device i3x). Data was analyzed with Origin software. A binding curve was generated and KD was calculated with a non-linear curve fitting model logistic. […]

[3] = molecular target: T2, DKK1 expressed in Wnt reporter cells (UniProt O94907 SEQ:32-266); assay: cell_activity; TOPFlash Wnt3a luciferase in HEK293T; conditions: tags: DKK1 construct co-transfected in HEK293T
T2 sequence: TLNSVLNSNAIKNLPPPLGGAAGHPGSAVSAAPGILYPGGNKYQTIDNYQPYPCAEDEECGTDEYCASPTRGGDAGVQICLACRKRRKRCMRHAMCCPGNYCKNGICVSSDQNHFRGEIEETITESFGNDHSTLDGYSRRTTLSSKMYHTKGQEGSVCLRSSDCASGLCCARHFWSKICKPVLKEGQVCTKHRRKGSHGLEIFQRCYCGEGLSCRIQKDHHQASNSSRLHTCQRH
Protocol: TCF-wnt induced luciferase activity assay: HEK293T cells were co-transfected with corresponding plasmids, including TOPFlash, FOPFlash, Wnt3a, and DKK1 constructs. An equal amount of the carrier was used for each time of transfection. The culture medium was replaced 24 hours after the transfection. The cells were treated with conditional culture medium containing 1 μM corresponding aptamer candidates. In order to determine inhibition effect, the cells are treated with aptamer candidates having gradient concentrations. 24 hours after treatment, the cells were lysed with 100 μl of lysis buffer, and 20 μl was taken for analysis. It was calculated according to the protocol (dual luciferase reporter gene assay, Promega).

[4] = molecular target: T1, DKK1 (Dickkopf-1), full-length; assay: ELONA; 1 nM: no or slight difference from aptdkk5; conditions: tags: His6; label: biotin
Protocol: (§1) Enzyme linked oligonucleotide assay (ELONA): 160 ng DKK1 per well and negative target were coated in a 96-well microtiter plate by incubating at 4° C. overnight through hydrophobic interaction. Non-binding sites in wells were blocked with bull serum albumin (BSA) at room temperature for 1 hour, and then washed with DNA-binding buffer 4 times for 5 minutes each. The biotinylated aptamer candidates/RS with an appropriate concentration were added to each well and incubated at room temperature for 45 minutes with continuous gentle shaking. After binding, the plate was washed with washing buffer 4 times for 5 minutes each to remove non-specific and weakly binding sequences. 100 μl streptavidin-horseradish peroxidase (HRP) (1:10000 dilute into PBST+0.1% BSA) was added to each well, and incubated for 30 minutes, and washed for 4 times with the binding buffer. 50 μl 3,3′,5,5′-tetramethylbenzidine (TMB) as a HRP substrate was added to each well and incubated for 20 minutes. 50 μl 2M H₂SO₄ was added to terminate the reaction. The absorbance at 450 nm was measured with a microplate reader (Molecular Device i3x). Data was analyzed with Origin software. A binding curve was generated and KD was calculated with a non-linear curve fitting model logistic.
The specificity of 100 nM/i nM of each aptamer/RS against DKK-1 was determined for 24 truncated sequences of aptdkk5 and original aptdkk5 (Table 6) by ELONA and the absorbance at 450 nm was detected. When the concentration was 100 nM, there was no significant difference or slight difference in the absorbance between apt5-1-38, apt5-1-35, apt5-1-62, or apt5-1-59 and the original aptdkk5 (FIG. 8a). When the concentration was 1 nM, there was no significant difference or slight difference in the absorbance between apt5-1-50, apt5-1-47, apt5-1-44, apt5-1-41, apt5-1-38, apt5-1-35, apt5-1-65, apt5-1-62, apt5-1-59, or apt5-1-53 and the original aptdkk5 (FIG. 8b). After the specificity and length of these aptamers were considered, apt5-1-44, apt5-1-41, apt5-1-38, and apt5-1-35 were selected to determine the binding affinity against DKK1.

[5] = molecular target: T1, DKK1 (Dickkopf-1), full-length; assay: ELONA; high affinity; Kd only in FIG. 9; conditions: tags: His6; label: biotin
Protocol: as §1
Aptamer candidates with significant specificity (apt5-1-44, apt5-1-41, apt5-1-38, and apt5-1-35) and the original aptdkk5 as a positive control were used to determine the binding affinity against DKK1. The original aptdkk5 and apt5-1-44 had concentrations of (0.15625 nM, 0.625 nM, 1.25 nM, 2.5 nM, 5 nM, 10 nM, 50 nM, and 100 nM), apt5-1-41, apt5-1-38, and apt5-1-35 had concentrations of (0, 1.5625 nM, 3.125 nM, 6.25 nM, 12.5 nM, 25 nM, and 50 nM).

[6] = molecular target: T1, DKK1 (Dickkopf-1), full-length; assay: ELONA; room temperature; conditions: tags: His6; label: biotin; G-rich, predicted G4
Protocol: as §1
Aptamer candidates with significant specificity and Candidate 3 as a negative control were used to determine the binding affinity against DKK1. Candidates 1, 2, 4, and 14 had concentrations of (0, 62.5 nM, 125 nM, 250 nM, 500 nM, 1000 nM, 2000 nM, and 4000 nM), Candidates 7, 10, 15, and 16 had concentrations of (0, 23.44 nM, 46.86 nM, 93.75 nM, 187.5 nM, 375 nM, 750 nM, and 1500 nM), and other candidates had concentrations of (0, 0.18 nM, 0.74 nM, 2.96 nM, 11.84 nM, 47.35 nM, 189.39 nM, and 757.58 nM). […] Six candidates (aptdkk-5, 13, 20, 19, 6, and 1) were rich in G. The other five sequences (aptdkk-9, 18, 12, 17, and 8) were not rich in G.

[7] = molecular target: T1, DKK1 (Dickkopf-1), full-length; assay: ELONA; not significantly above blank at 1 uM; used as negative control; conditions: tags: His6; label: biotin
Protocol: Enzyme linked oligonucleotide assay (ELONA): 160 ng DKK1 per well and negative target were coated in a 96-well microtiter plate by incubating at 4° C. overnight through hydrophobic interaction. Non-binding sites in wells were blocked with bull serum albumin (BSA) at room temperature for 1 hour, and then washed with DNA-binding buffer 4 times for 5 minutes each. The biotinylated aptamer candidates/RS with an appropriate concentration were added to each well and incubated at room temperature for 45 minutes with continuous gentle shaking. After binding, the plate was washed with washing buffer 4 times for 5 minutes each to remove non-specific and weakly binding sequences. 100 μl streptavidin-horseradish peroxidase (HRP) (1:10000 dilute into PBST+0.1% BSA) was added to each well, and incubated for 30 minutes, and washed for 4 times with the binding buffer. 50 μl 3,3′,5,5′-tetramethylbenzidine (TMB) as a HRP substrate was added to each well and incubated for 20 minutes. […] The absorbance at 450 nm was measured with a microplate reader (Molecular Device i3x). Data was analyzed with Origin software. A binding curve was generated and KD was calculated with a non-linear curve fitting model logistic.
The specificity of 1 μM of each adapter/RS against DKK-1 was determined for 20 potential sequences with the highest occurrence rate (Table 4) by ELONA and the absorbance at 450 nm was detected.

[8] = label: biotin, G-rich, predicted G4

B1: Apt5-1-62 (ssDNA)
DNA: CGTACGGTCGACGCTAGCTGGTGGTTGGGGTGGGTGGTGGTTGTTCGTGGCCGCGTACGGTC
- binding result [1]: binds

Binder: CGTACGGTCGACGCTAGCTGGTGGTTGGGGTGGGTGGT (ssDNA) [Apt5-1-38 (Aptdkk5s)]
- binding result [2]: binds

Binder: CGTACGGTCGACGCTAGCTGGTGGTTGGGGTGGGTGGT (ssDNA, O-methyl (positions not stated); 3' inverted dT) [dkk5s-OM-indT]
- IC50 [3]: 383 nM

B2: Apt5-1-65 (ssDNA)
DNA: CGTACGGTCGACGCTAGCTGGTGGTTGGGGTGGGTGGTGGTTGTTCGTGGCCGCGTACGGTCGAC
- binding result [4]: binds

B3: Apt5-1-53 (ssDNA)
DNA: CGTACGGTCGACGCTAGCTGGTGGTTGGGGTGGGTGGTGGTTGTTCGTGGCCG
- binding result [4]: binds

Binder: CGTACGGTCGACGCTAGCTGGTGGTTGGGGTGGGT (ssDNA) [Apt5-1-35]
- binding result [5]: binds

B4: Aptdkk-5 (ssDNA)
DNA: CGTACGGTCGACGCTAGCTGGTGGTTGGGGTGGGTGGTGGTTGTTCGTGGCCGGGATCCGAGCTCCACGTG
- Kd [6]: 0.3 nM
- IC50 [3, 8]: 754 nM

B5: Aptdkk-20 (ssDNA)
DNA: CGTACGGTCGACGCTAGCCGTAGGGAGGTGGGTGGGTATTTCTCTCTGTCGTGGGATCCGAGCTCCACGTG
- Kd [6]: 6.6 nM
- IC50 [3, 8]: 1500 nM

B6: Aptdkk-3 (ssDNA)
DNA: CGTACGGTCGACGCTAGCTAACTGTCCGACGCGTCTTTCACTTTCTCCCGCCGGGATCCGAGCTCCACGTG
- binding result [7]: no binding

B7: Apt5-1-59 (ssDNA)
DNA: CGTACGGTCGACGCTAGCTGGTGGTTGGGGTGGGTGGTGGTTGTTCGTGGCCGCGTACG
- binding result [1]: binds

Binder: CGTACGGTCGACGCTAGCTGGTGGTTGGGGTGGGTGGTGGTTGT (ssDNA) [Apt5-1-44]
- binding result [5]: binds

Binder: CGTACGGTCGACGCTAGCTGGTGGTTGGGGTGGGTGGTGGT (ssDNA) [Apt5-1-41]
- binding result [5]: binds
